Values joined by “and” are separate entries in the source; they are usually repeats but may differ in a detail not shown here. Equal values may be shown once. One block for each binder: values may come before it.
Assays:
[1] = biological target: T1, Homo sapiens factor Bb protein (human, UniProt P00751 260-764); test: SPR multi-cycle kinetics, IgG on Protein A chip, factor Bb analyte
T1 construct: Bought from CompTech (A155); also called complement factor Bb; human factor Bb
Protocol: Antibodies were diluted in running buffer to a final concentration of 0.5 μg/ml. At the start of each cycle, antibodies were loaded onto Fc2, Fc3 and Fc4 of the Protein A chip (GE Healthcare, Little Chalfont, UK). IgGs were captured at a flow rate of 10 μl/min to give an immobilisation level (RL) of ˜63 RU, the theoretical value to obtain an Rmax of ˜50 RU. The surface was then allowed to stabilize. Kinetic data was obtained with factor Bb as analyte and using a flow rate of 30 μl/min to minimize any potential mass transfer effects. Multiple repeats of a blank and a repeat of a single concentration of the analyte were programmed into the kinetic run in order to check the stability of both the surface and analyte over the kinetic cycles. For kinetic analysis, a two-fold dilution range was selected from 12. 5 nM to 0. 391 nM factor Bb. The association phase of factor Bb was monitored for 360 seconds and the dissociation phase was monitored for 600 seconds. Regeneration of the Protein A surface was conducted using two injections of 10 mM glycine-HCL pH 1. 5. The signal from the reference channel Fc1 was subtracted from that of Fc2, Fc3 and Fc4 to correct for differences in non-specific binding to a reference surface, and a global Rmax parameter was used in the 1-to-1 binding model.
The sensorgrams and fitted data for the binding of chimeric antibodies and humanized variants to factor Bb are shown in FIGS. 4A-4C. The relative KD was calculated by dividing the KD of the humanized variants by that of the chimeric antibody on the same chip. The kinetic parameters measured for the interaction of factor Bb with chimeric antibodies and humanized variants are shown in Table 10.

[2] = biological target: T1, Homo sapiens factor Bb protein; test: SPR single cycle kinetics, IgG on Protein A chip, factor Bb analyte
Protocol: (§1) In order to assess the binding of all humanized variants, single cycle kinetic analysis was performed on supernatants from transfected cell cultures. […] All single cycle kinetic experiments were run at 25° C. with HBS-P+running buffer (pH 7. 4) (GE Healthcare, Little Chalfont, UK).
(§2) Antibodies were diluted in running buffer to a final concentration of 1 μg/ml, based on concentrations assessed by ELISA titer. At the start of each cycle, antibodies were loaded onto Fc2, Fc3 and Fc4 of the Protein A chip (GE Healthcare, Little Chalfont, UK). IgGs were captured at a flow rate of 10 μl/min to give an immobilization level (RL) of ˜63 RU, the theoretical value to obtain an Rmax of ˜50 RU. The surface was then allowed to stabilize. Single cycle kinetic data was obtained with factor Bb (CompTech, Tyler, USA) as the analyte at a flow rate of 30 μl/min to minimize any potential mass transport limitations. Multiple repeats with the reference chimeric antibody were performed to check the stability of the surface and analyte over the kinetic cycles. The signal from the reference channel Fc1 (no antibody) was subtracted from that of Fc2, Fc3 and Fc4 to correct for differences in non-specific binding to a reference surface. A four point, two-fold dilution range from 0. 78 nM to 6. 25 nM factor Bb without regeneration between each concentration was used. The association phase for the four injections of increasing concentrations of factor Bb was monitored for 200 seconds each time and a single dissociation phase was measured for 200 seconds following the last injection of factor Bb. Regeneration of the Protein A surface was conducted using two injections of 10 mM glycine-HCL pH 1. 5.
(§3) The sensorgrams and fitted data for the single cycle kinetics are shown in FIGS. 1A-1D and the kinetic parameters measured for the interaction of factor Bb with each antibody are shown in Table 7. The relative KD was calculated by dividing the KD of the VH0/Vκ0 reference antibody by that of the humanized variant assayed in the same experiment.

[3] = biological target: T1, Homo sapiens factor Bb protein; test: BLI Octet, biotinylated antibody on SA biosensors
Protocol: Briefly, biotinylated antibodies were loaded onto SA Biosensors equilibrated in PBS, 0.1% BSA, 0.02% Tween-20 (assay buffer). After a 60 second baseline in assay buffer, antibodies were loaded onto the probes for 180 seconds, followed by another 60 second baseline. Association to human (Comptech) or cynomolgus monkey factor Bb (purified in-house) was measured for 300 seconds, followed by a 300 second dissociation. Kinetic parameters were calculated by the Octet Analysis software using a 1:1 binding model.

[4] = biological target: T1, Homo sapiens factor Bb protein; test: SPR single cycle kinetics; ratio against VH0/Vκ0
Protocol: as §1, §2, §3

[5] = biological target: T1, Homo sapiens factor Bb protein; test: SPR single cycle kinetics; against cynomolgus monkey factor Bb
Protocol: The ability of VH4/VK6 and VH6/VK7 to bind to zymogen factor B and factor Bb from both human and cynomolgus monkey was determined by surface plasmon resonance using a Biacore T200. Human factor B and factor Bb were purchased from Comptech and cynomolgus monkey factor B and factor Bb were purified in-house. Briefly, the monoclonal antibodies were captured on a Biacore Series S Protein A chip in HBSP+ (10 mM HEPES, 150 mM NaCl, 0.05% P20 pH 7.4) at a flow rate of 30 μL/min. A five-point concentration series of each analyte was tested for binding using single cycle kinetics with a contact time of 180 seconds per concentration followed by a 600 sec dissociation at 25° C. and a flow rate of […]. Both human and cynomolgus monkey factor B started at a concentration of 500 nM followed by 2-fold dilutions, while human and cynomolgus monkey factor Bb started at concentrations of 30 nM and 150 nM, respectively, followed by 2-fold dilutions. Data were analyzed using the Biacore evaluation software using a 1:1 binding model. […] Binding to human or cynomolgus monkey factor B was barely detectable and the small signal that was observed was dominated by non-specific binding.

T1 sequence (P00751 260-764 limits assumed): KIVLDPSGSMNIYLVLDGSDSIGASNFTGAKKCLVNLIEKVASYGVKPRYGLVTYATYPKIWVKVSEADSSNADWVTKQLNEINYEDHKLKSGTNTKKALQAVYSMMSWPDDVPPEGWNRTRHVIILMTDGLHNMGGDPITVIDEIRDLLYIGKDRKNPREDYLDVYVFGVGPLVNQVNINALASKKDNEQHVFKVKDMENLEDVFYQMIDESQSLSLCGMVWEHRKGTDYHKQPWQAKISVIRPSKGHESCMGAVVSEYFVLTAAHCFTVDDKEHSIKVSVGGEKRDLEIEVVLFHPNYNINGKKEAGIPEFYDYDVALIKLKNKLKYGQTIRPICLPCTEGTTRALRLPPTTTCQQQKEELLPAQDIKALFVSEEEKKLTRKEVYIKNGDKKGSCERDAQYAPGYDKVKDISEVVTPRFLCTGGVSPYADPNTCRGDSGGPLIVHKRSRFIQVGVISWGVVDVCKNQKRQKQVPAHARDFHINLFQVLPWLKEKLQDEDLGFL

- Kd [1]: 1.99 nM and 1.91 nM and 1.9 nM
- koff [1]: 0.000969 s⁻¹ and 0.000954 s⁻¹ and 0.00094 s⁻¹
- kon [1]: 487000 M⁻¹ s⁻¹ and 500000 M⁻¹ s⁻¹ and 495000 M⁻¹ s⁻¹
- Kd [2]: 1.76 nM
- koff [2]: 0.00103 s⁻¹
- kon [2]: 585000 M⁻¹ s⁻¹
- Kd [3]: 2 nM
- Relative KD [4]: 1
B1: VH0/Vκ0 (Chimeric) (antibody, V domains shown)
VH: EVQLVESGGALVKPGGSLKLSCAASGFTFSNYAMSWVRQTPEKRLEWVATISNRGSYTYYPDSVKGRFTISRDNAKNTLYLQMSSLRSEDTALYYCARERPMDYWGQGTSVTVSS
VL: DIVMTQSHKFMSTSVGDRVSITCKASQDVGTAVAWYQQKPGQSPKLLIYWASTRHTGVPDRFTGSGSGTDFTLTITNVQSEDLAVYFCHQHSSNPLTFGAGTKLELK
notes: also called chimeric antibody

- fold higher affinity for human factor Bb compared to cynomolgus monkey factor Bb [5]: ~10 fold
B2: VH6/Vκ7-IgG4v2 (antibody)
heavy: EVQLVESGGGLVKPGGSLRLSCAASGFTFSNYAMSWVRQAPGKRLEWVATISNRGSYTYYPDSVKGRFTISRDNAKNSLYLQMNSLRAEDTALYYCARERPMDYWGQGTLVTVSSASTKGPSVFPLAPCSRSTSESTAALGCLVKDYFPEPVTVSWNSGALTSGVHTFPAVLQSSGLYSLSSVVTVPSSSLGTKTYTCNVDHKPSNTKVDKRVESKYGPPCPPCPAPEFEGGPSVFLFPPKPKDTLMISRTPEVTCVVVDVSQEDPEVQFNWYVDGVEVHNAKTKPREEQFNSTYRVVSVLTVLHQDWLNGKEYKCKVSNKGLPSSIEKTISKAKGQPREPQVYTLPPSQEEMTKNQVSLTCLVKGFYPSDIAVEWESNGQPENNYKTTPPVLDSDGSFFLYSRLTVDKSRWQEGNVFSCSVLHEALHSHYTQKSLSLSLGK
light: DIQMTQSPSTLSASVGDRVTITCKASQDVGTAVAWYQQKPGKAPKLLIYWASTRHTGVPDRFSGSGSGTDFTLTISSLQAEDFAVYFCHQHSSNPLTFGQGTKLEIKRTVAAPSVFIFPPSDEQLKSGTASVVCLLNNFYPREAKVQWKVDNALQSGNSQESVTEQDSKDSTYSLSSTLTLSKADYEKHKVYACEVTHQGLSSPVTKSFNRGEC
notes: also called VH6/VK7-IgG4v2; VH6/VK7-IgG4v2_HEK

Reference: patent publication US20210332115A1 (Sanofi, published 2021)
